This data set can be described thus: soluble on expression in E. coli; label from the status in PepcDB or PDB records.
Take “MDDSSEEANQFEPPPAIRKSTRAVNNLSPHQKEVRCQCGTNNTDNRLIKCVECEKWQHAICMSVMPLDIIMTYKCEMCEPRLLMVSRSQARAYQGVEPEPREVRKKGRNQSVNLEEFLEFLSEASENISRPLALTTLFEDYKEHINYPQSVRILRKQLESNLLETISMSPNYYADRKAQMLFAMGLRVKGEFLERLERNAVVEVDGYHRITFYKSKNLEFRGKHRVGRFPLVNRRKSAESTSQQHGNSGEEDDDDIFIDLVVPVTGNSRWNQFPVKQEIPDEQSFGSASTLPNAEIEPNLQYSLSDTMTTGSASTWNMAATPPSEMRGIMMESMNGLHALQSASYPPYQEMQEMLCVQHTMMKSMHEIIKTQSDFYREMFKTRAIAGAPPAPATTSLRAFLHFLKGYVDYLESEQLVDCSRLTQQHLETCRAADKLISMEKLLTGLAVATTIAEAHLSDVSAIINGASAMEFYKFIEIYASNQSNSAFSGLCTDLKQKIQALVNMDKKIPFKELSRAFRTAISLVSQ”: the “soluble on expression in E. coli” value is given as “not soluble”.

Consider “MQEKQLKTIQNKIASWIKEIESAFIDELFSKIGPSKMLRSKLMLALLNEKTDAILLDKAFNLCAIVEMIQTASLLHDDVIDKAAMRRKLPSINALFGNFNAVMLGDVFYSKAFFELSKMGESIAKSLSNAVLRLSRGEIEDVFVGGSFNSDKQKYWRILEDKTAHFIEASLKSMAILLNKDAKMYADFGLNFGMAFQIIDDLLDITQDAKTLGKPNFSDFKEGKTTLPYLLLYEKLNQRDQGLLISYFKQDSHEIIEWTKEKFKQYGTIEETLKIAQVYSKKALEAIKGENNLILEKLAQDVIYRTF”, for which the “soluble on expression in E. coli” value is given as “not soluble”.

With “MSEEAEAGPSPKVNGENGNGTNTFDDLYVDDKMRRMIVDLQRQWLTDYHDSREKSLVALTEKLHQEFMEDQERVRRDLLVQFKIELDQTKEELEKKHAENLKEEIEKLSEKHQRELAVAKKKQWCWQCNSEAIYHCCWNTAYCSVECQQGHWQIHRKFCRRKKSNGGAPGPVQPIAEPTQSQQ”, the “soluble on expression in E. coli” value is given as “soluble”.

As for “MGSDKIHHHHHHMLKLYSFGPAANSMKPLLTVFEKGLDVEKHRLDPAKFEHHTDWFKAINPRGQVPALVDGDKVVTESTVICEYLEDEYPTEVALRPADSFGKAQMRIWTKWVDEYFCWCVSTIGWHRYVGNMVKSLSDAEFEEKVKAIPVIEQQVKWRRAREGFPQDMLDEEMRKIAYSVRKLDDHLADHEWLVPGQYTLADICNFAIANGMQFGFAELVNKQDTPHLVRWIEQINERPAVKQMFAQVELEKLGPRE”, the “soluble on expression in E. coli” value is “not soluble”.

Consider “GPGSMKGKAGRSIAAISDVRAAVLRFCDEQLSRRLDTQPVAEVHQKVSACVQTVDPAMTPYIFGSTAVLGVHEQGSDVDFVCLSPTDVQDGKGADAVSEVAKGLQSDFLFRLGEVVKREHYLWGIELVRRTRVPVLRVKGGLGVDGVSFDVTANRRNGVRNSALLRAYFTQCPEARWLSMLVKQWSKKTGLNASVEGGCITSYGWNIMIVYYLLRRRLVTLVPVESCDVADIAPMPPHMPLESLQQGGQGLADMLMDFVSYYLDEFAPETEVMSLTRAAGETTTEMLSWTKQAEDMARIRGEKIHYRWCIEDPYEYDLNVGRNVTPFKLMLLRKHLERARETALLLLATPPPSATARSVK”, for which the “soluble on expression in E. coli” value is given as “not soluble”.

With “MSVRIEDHAMLGNCHSAALVDHRGTIGWLCLPRFDSDAVFAALLGDQQHGQWALSPAADFRTERAYQDDSLVLCTRMITDSGTVELIDFMVASENGEVHQHLVRIVRCVQGSVPMHMRLTFRFNYGRTLEHHHHHH”, the “soluble on expression in E. coli” value was “soluble”.

As for “MSLRFNVLKYIRTTKANIQTIAMPLTTKPLSLKINAALFDVDGTIIISQPAIAAFWRDFGKDKPYFDAEHVIHISHGWRTYDAIAKFAPDFADEEYVNKLEGEIPEKYGEHSIEVPGAVKLCNALNALPKEKWAVATSGTRDMAKKWFDILKIKRPEYFITANDVKQGKPHPEPYLKGRNGLGFPINEQDPSKSKVVVFEDAPAGIAAGKAAGCKIVGIATTFDLDFLKEKGCDIIVKNHESIRVGEYNAETDEVELIFDDYLYAKDDLLKWEGHHHHHH”, the “soluble on expression in E. coli” value is reported as “not soluble”.

On to “MKLEVLPLDQKTFSAYGDVIETQEREFFHINNGLVERYHDLAKVEVLEQDRTLISINRAQPAAMPIVVHELERHPLGTQAFVPMNGEAFVVIVALGDDKPDLSTLRAFISNGRQGVNYHRNVWHHPLFAWQTVTDFLTVDRGGSDNCDVESIPTHELCFALEHHHHHH”, for which the “soluble on expression in E. coli” value is given as “soluble”.

Turning to “LSIPEDYQVRLQPTRVAGSYPLVRLEFTGATVDAPLMTQIARKYNIDVSILSSDLDYAGGVKFGMMVAEIFGNADDDEAAIRYLRENNVKVEVLGYVL”, the “soluble on expression in E. coli” value is reported as “not soluble”.

For the sequence “MGTRNVRPGDRISAAIVAITDDSVFVATGSKVDGVIDRRELEEADGSLPYAVGDRVDLYVTAVNGQEIRLSKGLSGQGGAAVLEEARDSGVPVEGRVTGTCKGGYNVDVLRKRAFCPGSQIDLHQLEDAESVVGQTFQFLVTRVEQHGRNIVVSRRALLERERDAALATFLEGVKEGDVLEGTVTRLAPFGAFVEIAPGVDGMVLEHHHHHH”, the “soluble on expression in E. coli” value is on record as “soluble”.

As to “MTTEHETHAAELGAPEPECARCGKVLPLCICDTVEPIASRTQLLILQHPQEQDRALGTARLTAQHFKNAEVRIGLSWPSLSKALGRTVHDPSRWAVLYLGSARAAELAEGREILAVDAKGQPEPHQDMILDEIEGVVLLDGTWSQAKALWWRNAWMLKCQRVILDPSAPSRYGRLRKEPRRDGLSTLEAAAMLLSRLEHRPEIETKLLEAFDRMLARFKQVQAERPDLAPKPKKRDWRRKKRGLEHHHHHH”, the “soluble on expression in E. coli” value is recorded as “not soluble”.

As to “MNKTELIKAIAQDTGLTQVSVSKMLASFEKIITETVAKGDKVQLTGFLNIKPVARQARKGFNPQTQEALEIAPSVGVSVKPGESLKKAAEGLKYEDFAK”, the “soluble on expression in E. coli” value is on record as “soluble”.

Turning to “MADWVTGKVTKVQNWTDALFSLTVHAPVLPFTAGQFTKLGLEIDGERVQRAYSYVNSPDNPDLEFYLVTVPDGKLSPRLAALKPGDEVQVVSEAAGFFVLDEVPHCETLWMLATGTAIGPYLSILRLGKDLDRFKNLVLVHAARYAADLSYLPLMQELEKRYEGKLRIQTVVSRETAAGSLTGRIPALIESGELESTIGLPMNKETSHVMLCGNPQMVRDTQQLLKETRQMTKHLRRRPGHMTAEHYW”, the “soluble on expression in E. coli” value was “soluble”.

As for “HVEQSNKDELLLEEITSWLEKNTDGKIVVFCGDKTVADNVYKFIEQNLPSVERHIDGKLPGFNISPQYNVLICDQSGEDGLNLQGKCRLAIHYSLPRTVMRIEQRIGRLNRYSASSIGVLPV”, the “soluble on expression in E. coli” value was “not soluble”.

On to “MGSDKIHHHHHHMILKFLNETLPWVRKPSRYIGREINSVVKDPEEISLRIALVFPDTYEVGTSNHGLEILYHILNEQPDVWAERSYLPWIDMIERMKEKDIPLYTMESYTPLYQMDAVGISLEYELSYTNVVEVLKLSKIPIFFWERKRRDPIVLGGGPCSSNPEPIYGFFDAILIGDGEEAILEIAQVLKETKGEERETIWKELSRIEGVYVPAFYEQKGRKIVPVSPEYPRTIKRRIVKDLNSQPVPVKKIVPNVESVHDRAVIEVARGCTRGCRFCHASVYYRPVRERSLENILENVEEMLKNTGYEEVSLLSLSTMDHTQIGEIVSELLKRYSEKKIAVSIPSTRMDRFGVEIAGRIASVRKTGLTFAPEAATQRLRNIINKNISEEDIFATLEAAKKSGWRRVKLYFMMGLPGETNEDLEEMVKLLERVKRLGFKEVSASVSVFVPKPHTPFQFARQISPEEAYEKIKTLKRAKRSARISYHDPRMSLLEGVFSRGDRKLLDLIVKAHELGALFDEWSEMFRFDLWEKAFDETGIDPNDYLREIDPSEDFPWDHIDMGVTKEFLKEEYRKALKGETTDDCRWNRCYLCGVCFRFGVKNVLFGGERG”, for which the “soluble on expression in E. coli” value is reported as “not soluble”.

Regarding “MSTNEIYNREEVLLLIEKLLGNNIEIPILLMLLLGLRMGEATGLRWSDVDLDNNLINVNQILVYSNGKISFKEPKTPKSKRALSAPKELIEKLKIEKLRQSKLKLQGILENKNNLVCLNTNLNPFLPSSLRKTFHNFTKKNNLKKIRIHDLRHTSATLLLLGGTNMKVVSERLGHTDIKITMNRYSHVLKEMDKEASDNLSELLEHHHHHH”, the “soluble on expression in E. coli” value is reported as “not soluble”.

Take “MIGTAVKELLLEKQETFLVPAENVANVMCLNPLSHAALVLSQVRYSKIPVLDKGDRFVGLIGLTDVVDKMFDLTSVDFEKLNEFTVADVMEVNVPVIGESWDLEEVLHLLVDASFLPVVDDNQRFKGIITRKEILKAVNHMAHELEKHHLVLPKSEEEMKVI”: the “soluble on expression in E. coli” value was “not soluble”.

“MDIKAQLKQIQDKGLYRELQPIQSVEKQYIYINDQSYINFTSNDYLGIGQLEYQPQNFLDFIKTYSIHLSSSRLVSGNSVVYQQLEQAISEHFNFEDALIFNSGYDANLAVFNIFKNNNVVIFSDQQNHASIIDGIKLSGLSKVIYQHLNYDDLESHLAQDTHLDVQKVIVSDSVFSTNGTKADINRLVHLKQRYNAILIIDASHSLGLNLFEYHADIDIVTSSLSKAWGAHGGIIFSSKDIKDLIINKGRSLIYSSSLPSYHLYFIQVSLQHVIEDTYRREKLNALSEYFNHQFMELFPNQPLSNTPIKNIVCDSLASAQAQYDMLFEHGIFVSYLRYPTVSQPTLRISLSYFHDTDDIDRLFNVMKQYDEGDSYV”: the “soluble on expression in E. coli” value is “not soluble”.

For “MGLLIEGRWHDQWYESGKDGAFQREQAQRRNWVTADGRPGPSGEGGFAAEAGRYHLYVSLACPWAHRTLILRKLKGLEQLIDVSVVSWLMRENGWTFDSAHGSSGDALDHFDFMHQRYTADTADYTGRVTVPVLWDKQQQRIVSNESAEIIRMFNSAFDGLTGNGLDFYPQPLRARIDELNARIYPALNNGVYRAGFATSQQAYETAFDDVFAELDALEALLDKQRYLAGEYLTEADVRLFTTLIRFDAVYHGHFKCNLRRIADYPNLSNWLRELYQWPGIAETVDFAHIKGHYYASHTTINPTGIVPKGPLQDFSRAHDRQRLSGQGVWCRGLEHHHHHH”, the “soluble on expression in E. coli” value is listed as “not soluble”.

On to “GMEAHMKSHNLLEAVRFDDQRFVMELVHESENFKIVSFTFKAGQELPVHSHNIEGELNIVVLEGEGEFVGDGDAVIPAPRGAVLVAPISTPHGVRAVTDMKVLVTIAPPI”, for which the “soluble on expression in E. coli” value is given as “soluble”.

Consider “MSLYMTIGRIFDLSVGKYPNKEALVEPEKNIRWTYKQWDEQINKTAHALLEEGVRKGDTVSVYLYNCHEFVNVYLACAKIGAIFNPINFRLKAKEVSYILQDASSKVVVFEKAVESTVAIIERDFPNTSFWSIENDKPSYASSYHEKVNEASSEKVNIEIDEMDYCSMLYTSGTTGHPKGVLHRHREMAEHSMICTYFLKYNRDSVGLVVAPLYHCGELNAGIIPRIQVGGKNVILHHFDTETVLHTIQEEKITTFFAAPTMWNMLLQKDLAQYDLTSMKIGIYGGAAMAPALVKECKERLYIDLVQIYGMTEMGPVVAFLVEEDQITKAGSAGTPCFSHEVRIVKPNEDAPAEPDDVLPPYEVGEIILRGPTMMAGYHNREEANKKSMYKGWYHSGDLGYFDKDGYLFVADRVDDMVISGGVNIYPREIEDFLHSHPGILDVAVLGEPDELWGERVVAVIVKKDETITEADLETYCKESDELADYKRPRHYLFVDELPRNASGKLQKFVLRESLKGAKEGHHHHHH”, for which the “soluble on expression in E. coli” value is “soluble”.

For the origin of these results see the DeepSol protein solubility set.
